Results: the supplement of paper PMC10598134
± gives the standard deviation.

Experiment: collision cross section of modified peptide (TIMS, N2, iRT-aligned); higher = larger / more extended gas-phase ion
Experimental: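 1/K0 was aligned run-wise to spiked iRT peptides and converted to CCS in N2 (Mason-Schamp). Values are the mean of 1-3 technical replicates for the most abundant feature at each charge state.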

[1] = charge state: 3, modification: Methyl (K)
[2] = charge state: 3, modification: Succinyl
[3] = charge state: 3, modification: hydroxyisobutyryl
[4] = charge state: 2, modification: HexNAc (ST)
[5] = charge state: 2, modification: Acetyl (K)
[6] = charge state: 3, modification: Acetyl (K)
[7] = charge state: 2, modification: Biotin
[8] = charge state: 3, modification: Biotin
[9] = charge state: 2, modification: Butyryl
[10] = charge state: 3, modification: Butyryl
[11] = charge state: 2, modification: Crotonyl
[12] = charge state: 3, modification: Crotonyl
[13] = charge state: 2, modification: Dimethyl (K)
[14] = charge state: 3, modification: Dimethyl (K)
[15] = charge state: 2, modification: Formyl
[16] = charge state: 2, modification: Glutarylation
[17] = charge state: 3, modification: Glutarylation
[18] = charge state: 2, modification: GlyGly (K)
[19] = charge state: 3, modification: GlyGly (K)
[20] = charge state: 2, modification: Malonyl
[21] = charge state: 2, modification: Methyl (K)
[22] = charge state: 2, modification: Propionyl
[23] = charge state: 2, modification: Succinyl
[24] = charge state: 3, modification: Trimethyl (K)
[25] = charge state: 2, modification: hydroxyisobutyryl
[26] = charge state: 2, modification: Trimethyl (K)

Sequence: DSINFLDHINGKK [_DSINFLDHINGK(Methyl (K))K_]
- collision cross section [1]: 461.65 ± 2.7 Å²

Sequence: DSINFLDHINGKK [_DSINFLDHINGK(Succinyl)K_]
- collision cross section [2]: 461.79 Å²

Sequence: DSINFLDHINGKK [_DSINFLDHINGK(hydroxyisobutyryl)K_]
- collision cross section [3]: 468.17 ± 2.7 Å²

Sequence: DSLGVSFPEELACK [_DSLGVS(HexNAc (ST))FPEELACK_]
- collision cross section [4]: 437.05 Å²

Sequence: DSRGGGGNFGPGPGSNFR [_DSR(Citrullination (R))GGGGNFGPGPGSNFR_]
- collision cross section (charge state: 3, modification: Citrullination (R)): 470.03 ± 5.1 Å²

Sequence: DSRGGGGNFGPGPGSNFR [_DSR(Methyl (R))GGGGNFGPGPGSNFR_]
- collision cross section (charge state: 3, modification: Methyl (R)): 480.39 ± 3.1 Å²

Sequence: DSSPTTNSKLSALQR [_DSSPTTNSK(Acetyl (K))LSALQR_]
- collision cross section [5]: 430.6 ± 0.81 Å²
- collision cross section [6]: 495.74 ± 2.2 Å²

Sequence: DSSPTTNSKLSALQR [_DSSPTTNSK(Biotin)LSALQR_]
- collision cross section [7]: 447.16 ± 2.3 Å²
- collision cross section [8]: 519.36 ± 0.34 Å²

Sequence: DSSPTTNSKLSALQR [_DSSPTTNSK(Butyryl)LSALQR_]
- collision cross section [9]: 435.34 ± 0.76 Å²
- collision cross section [10]: 499.02 ± 1.9 Å²

Sequence: DSSPTTNSKLSALQR [_DSSPTTNSK(Crotonyl)LSALQR_]
- collision cross section [11]: 436.18 ± 0.54 Å²
- collision cross section [12]: 499.72 ± 1.3 Å²

Sequence: DSSPTTNSKLSALQR [_DSSPTTNSK(Dimethyl (K))LSALQR_]
- collision cross section [13]: 423.14 ± 1.1 Å²
- collision cross section [14]: 472.53 ± 1.6 Å²

Sequence: DSSPTTNSKLSALQR [_DSSPTTNSK(Formyl)LSALQR_]
- collision cross section [15]: 427.17 ± 1.8 Å²
- collision cross section (charge state: 3, modification: Formyl): 491.37 ± 1.3 Å²

Sequence: DSSPTTNSKLSALQR [_DSSPTTNSK(Gluratylation)LSALQR_]
- collision cross section [16]: 431.44 ± 1.5 Å²
- collision cross section [17]: 500.2 ± 1 Å²

Sequence: DSSPTTNSKLSALQR [_DSSPTTNSK(GlyGly (K))LSALQR_]
- collision cross section [18]: 434.5 ± 1.6 Å²
- collision cross section [19]: 501.52 ± 0.79 Å²

Sequence: DSSPTTNSKLSALQR [_DSSPTTNSK(Malonyl)LSALQR_]
- collision cross section [20]: 424.62 ± 0.65 Å²
- collision cross section (charge state: 3, modification: Malonyl): 494.68 ± 0.88 Å²

Sequence: DSSPTTNSKLSALQR [_DSSPTTNSK(Methyl (K))LSALQR_]
- collision cross section [21]: 419.3 Å²
- collision cross section [1]: 475.79 ± 3.5 Å²

Sequence: DSSPTTNSKLSALQR [_DSSPTTNSK(Propionyl)LSALQR_]
- collision cross section [22]: 430.82 ± 2.1 Å²
- collision cross section (charge state: 3, modification: Propionyl): 498.95 Å²

Sequence: DSSPTTNSKLSALQR [_DSSPTTNSK(Succinyl)LSALQR_]
- collision cross section [23]: 428.81 ± 1.1 Å²
- collision cross section [2]: 496.14 ± 4.3 Å²

Sequence: DSSPTTNSKLSALQR [_DSSPTTNSK(Trimethyl (K))LSALQR_]
- collision cross section [24]: 473.36 ± 2.4 Å²

Sequence: DSSPTTNSKLSALQR [_DSSPTTNSK(hydroxyisobutyryl)LSALQR_]
- collision cross section [25]: 437.4 ± 0.29 Å²
- collision cross section [3]: 502.1 ± 2.1 Å²

Sequence: DTGEKLTVAENEAETK [_DTGEK(Acetyl (K))LTVAENEAETK_]
- collision cross section [5]: 441.95 ± 2.1 Å²
- collision cross section [6]: 512.62 Å²

Sequence: DTGEKLTVAENEAETK [_DTGEK(Butyryl)LTVAENEAETK_]
- collision cross section [9]: 448.65 ± 0.25 Å²

Sequence: DTGEKLTVAENEAETK [_DTGEK(Crotonyl)LTVAENEAETK_]
- collision cross section [11]: 449.13 ± 0.83 Å²

Sequence: DTGEKLTVAENEAETK [_DTGEK(Dimethyl (K))LTVAENEAETK_]
- collision cross section [13]: 442.93 ± 0.72 Å²
- collision cross section [14]: 481.58 ± 2.1 Å²

Sequence: DTGEKLTVAENEAETK [_DTGEK(Formyl)LTVAENEAETK_]
- collision cross section [15]: 439.79 ± 0.78 Å²

Sequence: DTGEKLTVAENEAETK [_DTGEK(Gluratylation)LTVAENEAETK_]
- collision cross section [16]: 451.19 ± 1.1 Å²
- collision cross section [17]: 527.35 Å²

Sequence: DTGEKLTVAENEAETK [_DTGEK(GlyGly (K))LTVAENEAETK_]
- collision cross section [18]: 443.91 ± 1.6 Å²
- collision cross section [19]: 490.28 ± 1.9 Å²

Sequence: DTGEKLTVAENEAETK [_DTGEK(Malonyl)LTVAENEAETK_]
- collision cross section [20]: 444.04 ± 1.8 Å²

Sequence: DTGEKLTVAENEAETK [_DTGEK(Methyl (K))LTVAENEAETK_]
- collision cross section [21]: 429.8 ± 2.5 Å²
- collision cross section [1]: 482 ± 3.4 Å²

Sequence: DTGEKLTVAENEAETK [_DTGEK(Propionyl)LTVAENEAETK_]
- collision cross section [22]: 443.51 Å²

Sequence: DTGEKLTVAENEAETK [_DTGEK(Succinyl)LTVAENEAETK_]
- collision cross section [23]: 445.72 ± 1.1 Å²
- collision cross section [2]: 515.74 ± 2.2 Å²

Sequence: DTGEKLTVAENEAETK [_DTGEK(Trimethyl (K))LTVAENEAETK_]
- collision cross section [26]: 443.08 Å²
- collision cross section [24]: 490.09 ± 1.8 Å²

Sequence: DTGEKLTVAENEAETK [_DTGEK(hydroxyisobutyryl)LTVAENEAETK_]
- collision cross section [25]: 449.65 ± 0.82 Å²
- collision cross section [3]: 520.27 ± 2.8 Å²

Sequence: DTPTSAGPNSFNKGK [_DTPTSAGPNSFNK(Acetyl (K))GK_]
- collision cross section [5]: 406.79 ± 1.5 Å²

Sequence: DTPTSAGPNSFNKGK [_DTPTSAGPNSFNK(Biotin)GK_]
- collision cross section [7]: 428.73 ± 1.1 Å²
- collision cross section [8]: 478.46 Å²

Sequence: DTPTSAGPNSFNKGK [_DTPTSAGPNSFNK(Butyryl)GK_]
- collision cross section [9]: 412.93 ± 0.78 Å²
- collision cross section [10]: 464.51 ± 3.2 Å²

Sequence: DTPTSAGPNSFNKGK [_DTPTSAGPNSFNK(Crotonyl)GK_]
- collision cross section [11]: 412.68 ± 0.55 Å²
- collision cross section [12]: 462.19 Å²

Sequence: DTPTSAGPNSFNKGK [_DTPTSAGPNSFNK(Dimethyl (K))GK_]
- collision cross section [13]: 406.79 ± 1.1 Å²
- collision cross section [14]: 455.12 ± 1.6 Å²

Sequence: DTPTSAGPNSFNKGK [_DTPTSAGPNSFNK(Formyl)GK_]
- collision cross section [15]: 404 ± 0.2 Å²

Sequence: DTPTSAGPNSFNKGK [_DTPTSAGPNSFNK(Gluratylation)GK_]
- collision cross section [16]: 415.83 ± 1.8 Å²
- collision cross section [17]: 444.87 ± 1.9 Å²

Sequence: DTPTSAGPNSFNKGK [_DTPTSAGPNSFNK(GlyGly (K))GK_]
- collision cross section [18]: 413.5 ± 3.1 Å²
- collision cross section [19]: 464.37 ± 0.33 Å²

Sequence: DTPTSAGPNSFNKGK [_DTPTSAGPNSFNK(Malonyl)GK_]
- collision cross section [20]: 408.63 ± 0.58 Å²

Sequence: DTPTSAGPNSFNKGK [_DTPTSAGPNSFNK(Methyl (K))GK_]
- collision cross section [21]: 405.71 ± 2.7 Å²
- collision cross section [1]: 460.78 ± 4.6 Å²

Sequence: DTPTSAGPNSFNKGK [_DTPTSAGPNSFNK(Propionyl)GK_]
- collision cross section [22]: 410.13 ± 0.64 Å²

Sequence: DTPTSAGPNSFNKGK [_DTPTSAGPNSFNK(Succinyl)GK_]
- collision cross section [23]: 411.39 ± 1.1 Å²

Sequence: DTPTSAGPNSFNKGK [_DTPTSAGPNSFNK(Trimethyl (K))GK_]
- collision cross section [26]: 411.65 ± 1.2 Å²
- collision cross section [24]: 457.6 ± 1.8 Å²

Sequence: DTPTSAGPNSFNKGK [_DTPTSAGPNSFNK(hydroxyisobutyryl)GK_]
- collision cross section [25]: 416.06 ± 1.1 Å²
- collision cross section [3]: 443.44 ± 3 Å²

Sequence: DVFISAAER [_DVFIS(HexNAc (ST))AAER_]
- collision cross section [4]: 363.87 Å²

Sequence: DVNAAIAAIKTK [_DVNAAIAAIK(Acetyl (K))TK_]
- collision cross section [5]: 390.07 ± 14 Å²
- collision cross section [6]: 457.21 Å²

Sequence: DVNAAIAAIKTK [_DVNAAIAAIK(Biotin)TK_]
- collision cross section [7]: 423.85 Å²

Sequence: DVNAAIAAIKTK [_DVNAAIAAIK(Butyryl)TK_]
- collision cross section [9]: 406.92 ± 0.23 Å²
- collision cross section [10]: 469.41 Å²

Sequence: DVNAAIAAIKTK [_DVNAAIAAIK(Crotonyl)TK_]
- collision cross section [11]: 406.32 ± 0.28 Å²
- collision cross section [12]: 463.44 ± 4.2 Å²

Sequence: DVNAAIAAIKTK [_DVNAAIAAIK(Dimethyl (K))TK_]
- collision cross section [13]: 394.29 ± 0.87 Å²
- collision cross section [14]: 456.19 ± 1.7 Å²

Sequence: DVNAAIAAIKTK [_DVNAAIAAIK(Formyl)TK_]
- collision cross section [15]: 377.34 ± 15 Å²

Sequence: DVNAAIAAIKTK [_DVNAAIAAIK(Gluratylation)TK_]
- collision cross section [16]: 410.15 ± 0.99 Å²
- collision cross section [17]: 471.67 ± 2.5 Å²

Sequence: DVNAAIAAIKTK [_DVNAAIAAIK(GlyGly (K))TK_]
- collision cross section [18]: 401.67 ± 0.99 Å²
- collision cross section [19]: 465.81 ± 1.1 Å²

Sequence: DVNAAIAAIKTK [_DVNAAIAAIK(Malonyl)TK_]
- collision cross section [20]: 406.2 ± 0.59 Å²

Sequence: DVNAAIAAIKTK [_DVNAAIAAIK(Methyl (K))TK_]
- collision cross section [21]: 392.53 ± 0.95 Å²
- collision cross section [1]: 462.62 ± 2.7 Å²

Sequence: DVNAAIAAIKTK [_DVNAAIAAIK(Succinyl)TK_]
- collision cross section [23]: 407.52 ± 0.54 Å²
- collision cross section [2]: 461.32 Å²

Sequence: DVNAAIAAIKTK [_DVNAAIAAIK(Trimethyl (K))TK_]
- collision cross section [26]: 402.42 ± 1.1 Å²
- collision cross section [24]: 465.71 ± 2.2 Å²

Sequence: DVNAAIAAIKTK [_DVNAAIAAIK(hydroxyisobutyryl)TK_]
- collision cross section [25]: 392.68 ± 15 Å²
- collision cross section [3]: 466.43 ± 5.5 Å²

Sequence: DYGNSPLHR [_DY(Nitro (Y))GNSPLHR_]
- collision cross section (charge state: 2, modification: Nitro (Y)): 341.59 ± 0.55 Å²
- collision cross section (charge state: 3, modification: Nitro (Y)): 437.8 ± 1.2 Å²

Sequence: DYGNSPLHR [_DY(Phospho (Y))GNSPLHR_]
- collision cross section (charge state: 2, modification: Phospho (Y)): 345.01 ± 0.066 Å²
- collision cross section (charge state: 3, modification: Phospho (Y)): 444.49 Å²
